Patent US20230048960A1 (University of Washington, published 2023)
Square brackets hold non-standard residues; d marks the D form.

Key:
Experiment in all cases: cell-based or functional assay
Aβ42 [1] = target: T1, Aβ42 (UniProt P05067 672-713)
Aβ42 [2] = target: T1, Aβ42; remark: listed apart in the source
[3] = target: T2, islet amyloid polypeptide (IAPP) (UniProt P10997 34-70, limits assumed)
T2 peptide (looked up): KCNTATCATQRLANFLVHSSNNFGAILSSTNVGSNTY

T1 sequence (P05067 672-713 limits assumed): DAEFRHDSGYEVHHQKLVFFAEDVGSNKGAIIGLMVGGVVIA

B1: AP527m (peptide)
peptide: Ac-[dR]G[dE]M[dN]L[dS]W[dM][dN][dE][dY][dY]G[dW]T[dM]N[dM]K[dC]G[dR]-NH2
SMILES: CSCC[C@H](NC(=O)[C@@H](CCC(=O)O)NC(=O)CNC(=O)[C@@H](CCCNC(=N)N)NC(C)=O)C(=O)N[C@H](CC(N)=O)C(=O)N[C@@H](CC(C)C)C(=O)N[C@H](CO)C(=O)N[C@@H](Cc1c[nH]c2ccccc12)C(=O)N[C@H](CCSC)C(=O)N[C@H](CC(N)=O)C(=O)N[C@H](CCC(=O)O)C(=O)N[C@H](Cc1ccc(O)cc1)C(=O)N[C@H](Cc1ccc(O)cc1)C(=O)NCC(=O)N[C@H](Cc1c[nH]c2ccccc12)C(=O)N[C@H](C(=O)N[C@H](CCSC)C(=O)N[C@@H](CC(N)=O)C(=O)N[C@H](CCSC)C(=O)N[C@@H](CCCCN)C(=O)N[C@H](CS)C(=O)NCC(=O)N[C@H](CCCNC(=N)N)C(N)=O)[C@@H](C)O
**Q.** Which results are given for B1?
**A.** % Inhibition 1:10 (AP peptide:Abeta42), ThT assay (Aβ42 [1]): 14%; % inhibition of fibril formation (ThT), AP:Aβ42 1:1 (Aβ42 [2]): 54.2%; % inhibition of fibril formation (ThT), AP:Aβ42 1:10 (Aβ42 [2]): 14.3%; % inhibition of fibril formation (ThT), AP:Aβ42 1:100 (Aβ42 [2]): 0%

**Q.** What does the source list for Ac-[dR]G[dE]M[dN]L[dS]W[dM][dN][dE][dY][dY]G[dW]T[dM]N[dM]K[dC]G[dR]-NH2 (also: homodimer: D-Cys21 disulfide-bonded to D-Cys21 of other copy) [AP527d]?
**A.** % Inhibition 1:10 (AP peptide:Abeta42), ThT assay (Aβ42 [1]): 96%; % inhibition of fibril formation (ThT), AP:Aβ42 1:1 (Aβ42 [2]): 100%; % inhibition of fibril formation (ThT), AP:Aβ42 1:10 (Aβ42 [2]): 96.2%; % inhibition of fibril formation (ThT), AP:Aβ42 1:100 (Aβ42 [2]): 86.4%

B2: AP527d (BMOE) (peptide)
peptide: Ac-[dR]G[dE]M[dN]L[dS]W[dM][dN][dE][dY][dY]G[dW]T[dM]N[dM]K[dC]G[dR]-NH2
modifications: also: homodimer linked by BMOE, linker at 21 via BMOE, other end not in the chain
**Q.** B2 was tested. Which “% Inhibition 1:10 (AP peptide:Abeta42), ThT assay” value (Aβ42 [1]) did it give?
**A.** The value was 80%.

B3: AP527d (MalPEG1) (peptide)
peptide: Ac-[dR]G[dE]M[dN]L[dS]W[dM][dN][dE][dY][dY]G[dW]T[dM]N[dM]K[dC]G[dR]-NH2
modifications: also: homodimer linked by MalPEG1, linker at 21 via MalPEG1, other end not in the chain
**Q.** Which “% Inhibition 1:10 (AP peptide:Abeta42), ThT assay” value (Aβ42 [1]) does the source give for B3 here?
**A.** Its value is 75%.

B4: AP090 (peptide)
peptide: Ac-RGE[dM]N[dL]S[dW]MNEYSGW[dT]M[dN]L[dK]MGR-NH2
SMILES: CSCC[C@H](NC(=O)[C@@H](CCCCN)NC(=O)[C@H](CC(C)C)NC(=O)[C@@H](CC(N)=O)NC(=O)[C@H](CCSC)NC(=O)[C@H](NC(=O)[C@H](Cc1c[nH]c2ccccc12)NC(=O)CNC(=O)[C@H](CO)NC(=O)[C@H](Cc1ccc(O)cc1)NC(=O)[C@H](CCC(=O)O)NC(=O)[C@H](CC(N)=O)NC(=O)[C@H](CCSC)NC(=O)[C@@H](Cc1c[nH]c2ccccc12)NC(=O)[C@H](CO)NC(=O)[C@@H](CC(C)C)NC(=O)[C@H](CC(N)=O)NC(=O)[C@@H](CCSC)NC(=O)[C@H](CCC(=O)O)NC(=O)CNC(=O)[C@H](CCCNC(=N)N)NC(C)=O)[C@H](C)O)C(=O)NCC(=O)N[C@@H](CCCNC(=N)N)C(N)=O
**Q.** For B4, which “% inhibition of fibril formation (ThT), AP:Aβ42 1:1” value (Aβ42 [2]) is on record?
**A.** The value was 69.7%.

**Q.** What about the “% inhibition of fibril formation (ThT), AP:Aβ42 1:10” value (Aβ42 [2]) of the same binder?
**A.** The value was 0%.

**Q.** And the “% inhibition of IAPP amyloid formation, Ratio AP:IAPP 1:1” value [3]?
**A.** Its value is 40%.

**Q.** What about the “% inhibition of IAPP amyloid formation, Ratio AP:IAPP 4:1” value [3] of the same binder?
**A.** Its value is 42%.

**Q.** And the “% inhibition of IAPP amyloid formation, Ratio AP:IAPP 10:1” value [3]?
**A.** Its value is 65%.
